Test results taken from the nanobody polyreactivity screen of Harvey et al. (2022).

Assay: yeast display, Sf9 membrane polyspecificity reagent, FACS + sequencing; frameworks hold sequencing errors
How it was run: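 Synthetic nanobody libraries on Saccharomyces cerevisiae BJ5465 were galactose-induced for 36–48 hours, stained 1 hour at 4 °C with 10% biotinylated, detergent-solubilized Sf9 membrane reagent and enriched on streptavidin microbeads. FACS then separated cells into low and high (top ~1%) gates by anti-HA (expression) and streptavidin (reagent binding) fluorescence. Genes were colony-PCR amplified, MiSeq 2 × 250 sequenced and CDR-length filtered. A clone's polyreactivity label is that of its gate of origin.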

Row | Sequence | polyreactivity (PSR sort gate)
1 | QVQLVESGGGLVQAGGSLRLSCAASGRTFVPYAMGWYRQAPGKERELVAAITSSGGSTYYADSVKGRFTISRDNAKNTVYLQMNSLKPEDTAVYYCNALDGTLRTIYDYWGQGTQVTVSS | high polyreactivity
2 | QVQLVESGGGLVQAGGSLRLSCAASGRIFRFYDMGWYRQAPVKESELVASISSTGGRTYYADSVKGRFTISRDNAKNTVYVQMNSLKPEDTAVYYCNATRGQYVGRYYYWGQGTQVTVSW | high polyreactivity
3 | QVQLVESGGGLVQAGGRLRLSCAASGFIFSYYTMGCYRQAPGKERELVAAIRSSGGSTYADSVKGRFTISRDNAKNTVYLQMNSLNPEDTAVYYGAGGYYWNEPLYWYGDFDYWGQGTQVTVSS | high polyreactivity
4 | QVQLQESGGGLVQAGGSLRQSYAASGYIFPSLAMGWYRQAPGKEREFVAAIGRGSTNNYADSLKGRFTISRDNEKNTAYQQMNSLKPEVTAVYYCAADASPLTRHLYWGQGTQVTVSS | low polyreactivity
5 | QVQLVESGGGLVQAGGSLRLSCGASGRIFRGYAMGWYRQGPGKERELVAAISRRGGSTYYADSVKGRFTISRDNAKNTVYLQMNSLKPVDTAVYYCNADGVHYVAYAGGYWGQGTQVTVSS | high polyreactivity
6 | QVQLVESGGGLVQAGGSLRLSCAASGFIFIYNAMGWYRHAPGKERELVATINWSGGDSTYYADSVKGRFTISRDKAKNTVSLQMNSLKPEDTSVYYCATLSWYQQAYDYWGQGTQVTVSS | low polyreactivity
7 | QVQLVESGGVLVQAGGILRLSCAASVRTFYRYAMGWYRQAPGKERELVAAITSGDRTNYADSVKGRFTMSRDNAKNTVYLQMNSLKPEYTADYYCAARRDYWAPYYYWGQGTQVTVSS | high polyreactivity
8 | QVQLVESGGGLVQAGGSLRLSCAASGSIFRFNAMGWSRQAPGKERELVARITSGGSTNYADSVKGRFTISRDNAKNTVYLQMNSLKPEDTAVYYCAAVYLLRGRRVTSYPYGYWGQGTQVTVSS | high polyreactivity
9 | QVQLVESGGGLVQAGGSLRLSCAASGRTFRRYTMGWYRQAPGKERELVATISWSGGTTYADSVKGRFTISRDNAKNTVYLQMNSLKPEDTAVYFCAAVSYVYRYYWGQGTQVTVSS | low polyreactivity
10 | QVQLVESGRGLVQAGGSLRLSCAASGFIFDYNTMGWYRQAPGKERELVAGITSGGSTYYADSVKGRFTISRDNEKNTFYLQMNSLKPDDTAVYYCATDDDEYYGYDYWGQGTQVTVST | low polyreactivity
11 | QVQLVESGGGLVQAGGSLRLSCCASGFTFIVYSMGWYRQSPGKERELVAAITQSGGSTFYADSVKGRFTISRDNAKNTVYLQMNSLKPEDTAVYYCNAYRKFRYWGQGTQVTVSS | low polyreactivity
12 | QVQLVESGGGLVQAGGSLRLSCAASGYTFTIYAMGWYRQAPGKERELVAAITGRGGRTNYADSVKGRFTISRDNAKNTVYLQMNSLKPEDTAVYYCAKGGRSSSPRYRFDYWGQGTQVTVSS | high polyreactivity
13 | QVQLVESGGGLVQAGGSLRLSCAASGITFTFNAMGWYRQAPGKERELVAAITWSGGSTFYADSVKGRFTISRDNAKNTVYLQMNSLKPEDTAVYYCARDTELYVRWLDYWGQGTQVSVSS | low polyreactivity
14 | QVQLVESGGGLVQAGGSHRLSCAASGITFARYAIGWSRQAPGKEREFLAAISWSGGNTYYADSVKGRFTISRDYAKNTVYLQLNSLKTEDTAVYYCAAESKGSWRYYYRFYYWGQGTQVTVSS | high polyreactivity
15 | QVQLVESGGGLVQAGGSLRLSCAASGSILVLNDMGWYRQAPGKERELVATITSGGNTYYADSVKGRFTISRDNAKNTVYLQMNSLKPEDTAVYYCNARWQRPYDYWGQGTQVTVSS | low polyreactivity
16 | QVQLVESGVGLVQAGGRLLLSCAASRSIFTRYTMGWYSQAPGKEWELVATISSRGDGTFYADSVKGRFTISRDNAKNTFYLQMNSLKPEDTAVYYCAARYRRVHSGYGYWGQVTQVTVSS | high polyreactivity
17 | QVQLVESGGGLVQAGGSLRLSCAASGSSFRYNAMGWYREAPGKEREMVAAITSSATSTYYADSVKGRFTISRDNAKNTVYLQMNSLKPEATAVYYCAAPPVYKWVSSRYDYWGQGTQVTVSS | low polyreactivity
18 | QVQLVESGGGLVQAGGSLRLSCAASGRTFHYYAMGWYRQAPGKERELVAAITRGGNTYYADSVKGRFTISRDNAKNTVYLQMNSLKPEDTAVYYCAKTAAVNGGYDYWGQGTQVTVSS | high polyreactivity
19 | QVQLVESGGGLVQAGGSLRLSCAASGRTFGINAMGWYRQAPGKERELVADITDSGVSTYYADSVKGRFTISRDNAKNTVYLQMNSLKPEDTAVYYCNTGSYLFFLYGDDYWGQGTQVTVSS | low polyreactivity
20 | QVQLVESGGGLVQAGGSLRLSCAASGRTFTAYTMGWYRQAPGKERELVDSISSGVTYADSVKGRFTISRDNAKNTVYLQMNSLKPEDTAVYYCAARLWYVQGYVPYVHHRFDYWGQGTQVTVSS | low polyreactivity
21 | QDQLVESGRGLVQAGGSLRLSCAASASIFTKYTMVWYRQAPGKERELVAAITLRGTSTYYADSVKGRFTISRDNAKKTVYLQKNSLKPEDTAVYYCNILYSWVVAYDYWGQGTQVTLSS | high polyreactivity
22 | HVQLVESGGGLVQAGGSLRLSCAASGSIFFVYDMGWYRQAPGKERELVAAITWSGGRTTYADSVKGRFTISRDNAKNTVYLQMNSLKPVDTAVYYCAAGRVRLRILWGKRGWYDYWGQGTQVTVSS | low polyreactivity

Row | Sequence | polyreactivity (PSR sort gate)
23 | QVQLEDSGGGLVQAGGSLRLSCAASGRTFRSNVMGWYRQAPGKERELVAAISKRGGSTFSADSVKGRFTISRDNAKNTVYLQMNSLKPEDTEVYYCAKDTPVYDYGTVYPDDYWGQGTQVTVSS | high polyreactivity
24 | QVQLVESGGGLVQAGGSLRLSCAASGSIFYSNVMGWYRQAPGKERELVARITVAGSTNYADSVKGRFTISRDNAKNTVYLQMNSLKPEDTAVYYCNARLVIYTYDYWGQGTQVTVSS | low polyreactivity
25 | QVQLVESGGGLVQAGGSLRVSCAASGRILNPNAMGWYRQAPGKERELVADISSGGSTYADSVKGRFTISRDNAKNTVYLQMNSLKPEDTAVYYCAKPGYEEFYREYDSWGQGTQVNVSS | low polyreactivity
26 | QVQLVESGGVLVQAGGSLRLSCAASGRIFGSYTMGWYRQAPGKERELVAGISRRGGSTYYADSVKGRFTISRDNAKNTVYLQMNSLNPEDTAVYYCAAVSSVFSVRYDYWGQGTQVTVSS | high polyreactivity
27 | QVQLVESGGGLVQAGGSLRLSCAASGSTFAVYTMGWYRQAPGKERELSTSYADSVKGRFTISRDNAKNTVYLQMNSLKPEDTAVYYCAADYDAWYDDIEYDYWGQGTQVTVSS | low polyreactivity
28 | QVQLVESGGGLVQAGGSLRLSCAASGSIFSSNAMGWYRQAPGKERELVAAITGSDGSTYYADSVKGRFTISRDNAKNTVYLQMNSLKPEDTAVYYCAAVGRYYYFDGFYYWGQGTQVTVSS | low polyreactivity
29 | QVQLVDSGGGLVQAGGSLRLSCAASGYTFDRYAMGWYRQAPGKERELVAAISVRGGRTHYADSVKGRFTISRDNAKNTVYLQMNSLKPEDTAVYYCNKDSKGGYSVPHDYWGQGTQVTVSS | low polyreactivity
30 | QVQLVESGGGLVQAGGSLRLSCAASGSIFRVYAMGWYRQAPGKERELVAVGSTYYADSVKGRFTISRDNAKNTVYLQMNSLKPEDTAVYYCARRGKSRYSYHYWGQGTQVTVSS | high polyreactivity
31 | QVQLVESGGGLVQAGGSLRLSCAASGSTFGHYVMGWYRQAPGKERELVAVISSSGGRTYYADSVKGRFTISRDNAKNTVYLQMNSLKPEDTAVYYCAAGSISTPGRGVDKPDPYDYWGQGTQVTVSS | low polyreactivity
32 | QVQLVESGGGLVQAGGSLRLSCAASGRTFGVYVMGWSRQAPGKERELVAVITISGGSTYYADSVKGRFTISRDNAKNTVYLQMNSLKPEDTAVYYCAARTYYGYDYWGQGTQVTVSS | high polyreactivity
33 | QVQLVESGGGLVQAGGSLSLSCAASGITLYRYVMGWYRQAPWKERELVADNTGRGTSTYYADSVKGRFTISRDNAKNTVYFQLNSLKPEDTAVYYCNAEYTKTGALVIPYTYYYAEDYWGQATQVTVSS | low polyreactivity
34 | QVQLVESGGGLVQAGGSLRLSCAASGRIFDRNAMGWYRPAPGKERELVAAISRRGGSTYYADSVKGRITISRDNAKNTVYLQMNSLKPEDTAVYYCAARFLYRSVKMDYWGQGTQVTVSS | high polyreactivity
35 | QVQLVESGGGLVQAGGSLRLSCAASGFIFFFYAMGWYRQAPGKERELVASISWNGGSTYYADSVKGRFTISRDNAKNTVYLQMNSLKPEYTAVYYCAVYSFRERVKAYRIYDYWGQGTHVTVSS | low polyreactivity
36 | QVQLVESGGGLVQAGGSLRLSCAASGSTFYFNAMGWYRQAPGKERELVATISDNDGSTNYADSVKGRFTISRDNAKNTVYLLMISLKPEDTGVYYCNADWYYYYEEDDYWGQGTQVTVSS | low polyreactivity
37 | QVQLVESGGGLVQAGGSLRLSCAASGFIFSKYAMGWYRQAPGKERELVAAISWSGGSTYYADSVKGRFTISRDNAKNTVYLQMNSLKPEDTAVYYCAADWYFELFRVYAEYDYWGQGTQVTVSS | low polyreactivity
38 | QVQLVESGGGLVQAGGSLRLSCAASGIIFSYYAMGWYRQEPGKERELVAAIDSGGSTYYADSVKGRFTISRDNAKNTVYLQMNSLKPEDTAVYYCNADTARGVPVFPHDYWGQGTQVTVSS | low polyreactivity
39 | QVQLVESGGGLVQAGGSLRLSCAASGSNFVKYVMGWYRQAPGKERELDAAITWRGGRTYYADSVKGRFTISRDNEKNTVYLQMNSLKPEDTAVYYCAAYDQSLYGRRYDYWGQGTQVTVSS | high polyreactivity
40 | QVQLVESGGGLVQAGGSLRLSCAASGSTFPPYVMGWYRQAPGKERELVAAITWSSGSTYYADSVKGRFTISRDNAKNTVYLQMNSLKPEDTAVYYCAARAYRWGQGTQVTVSS | low polyreactivity
41 | QVQLVESGGGLVQAGGSLRLSCAASGITLSIYAMGWYRQAPGKERELVAAIDWSDGSTYYADSVKGRFTISRDNAKNTVYLQMNSLKPEDTAVYYCAAEYHWSYWWPTDDYWGQGTQVTVSS | high polyreactivity
42 | QVQLVESGGGLVQAGGSLRLSCAASGSTLFTYAMGWYRQAPGNERELVAAITSSGSTYYADSVKGRFTISRDNATNTVSLQMKSLKPEDTAVYYCAGPGYRYTNYYYWGQGTQVTVSS | low polyreactivity
43 | QVQLVESGGGLVQAGGSLRLSCAASGSIFQYNAMGWYRQAPGKESELVAVISWSGDTYYADSVKGRFTISRDNAKNTVYLQMNSLKPEDTAVYYCATDVLAWAPNDYWGQGTQVTVSS | low polyreactivity
